In patent US20040146507A1:

Columns and labels:
rhesus CD18 (rhesus) [1] = molecular target: rhesus CD18 (rhesus) (UniProt H9Z8N5); assay: saturation binding, rhesus leukocytes, donor 2; Kd(app)
rhesus CD18 (rhesus) [2] = molecular target: rhesus CD18 (rhesus) (UniProt H9Z8N5); assay: saturation binding, rhesus leukocytes, donor 1; Kd(app)
human CD18 (human) = human CD18 (human) (UniProt P05107); assay: cell-based or functional assay
rhesus CD18 (rhesus) [3] = molecular target: rhesus CD18 (rhesus) (UniProt H9Z8N5); assay: cell-based or functional assay

Sequence of human CD18 (human) (P05107 23-769): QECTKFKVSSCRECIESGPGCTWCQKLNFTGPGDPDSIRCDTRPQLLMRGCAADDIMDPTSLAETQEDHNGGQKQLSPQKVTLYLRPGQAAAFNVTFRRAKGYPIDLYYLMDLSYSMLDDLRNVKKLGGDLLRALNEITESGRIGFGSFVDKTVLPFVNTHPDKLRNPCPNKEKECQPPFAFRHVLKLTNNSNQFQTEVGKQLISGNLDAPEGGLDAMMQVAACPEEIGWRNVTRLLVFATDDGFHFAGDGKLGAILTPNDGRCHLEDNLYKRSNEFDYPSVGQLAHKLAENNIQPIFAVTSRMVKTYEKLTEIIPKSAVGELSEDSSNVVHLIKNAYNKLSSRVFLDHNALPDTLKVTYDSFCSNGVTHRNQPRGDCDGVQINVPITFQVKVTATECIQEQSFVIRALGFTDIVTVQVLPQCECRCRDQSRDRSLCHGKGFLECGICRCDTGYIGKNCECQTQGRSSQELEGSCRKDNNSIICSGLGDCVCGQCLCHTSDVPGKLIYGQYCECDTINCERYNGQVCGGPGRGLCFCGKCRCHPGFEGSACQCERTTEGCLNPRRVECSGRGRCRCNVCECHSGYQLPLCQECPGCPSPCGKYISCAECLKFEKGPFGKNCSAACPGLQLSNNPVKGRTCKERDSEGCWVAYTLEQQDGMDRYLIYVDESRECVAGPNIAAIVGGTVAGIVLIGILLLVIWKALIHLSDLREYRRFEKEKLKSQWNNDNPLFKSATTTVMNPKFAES

Kd (rhesus CD18 (rhesus) [1]): 4.5 nM | Kd (rhesus CD18 (rhesus) [2]): 3.9 nM | IC50, blocking of cell adhesion, Rh/HuCD11a: HuK (human CD18 (human)): 1.4 nM | IC50, blocking of cell adhesion, RhLy: HuICAM (rhesus CD18 (rhesus) [3]): 1.2 nM | IC50, blocking of cell adhesion, RhLy: HuK (rhesus CD18 (rhesus) [3]): 1.6 nM
Substance: murine anti-human CD18 antibody MHM23
